The text below walks through data of article PMC9064290.

The target in this experiment is α1-specific anti-SynGAP antibody (06–800). The experiment can be described thus: western blot of cell lysates, band intensity quantified. Conditions: H293T cells transfected with wild-type or PBM EGFP-SynGAPα1; probed with Pan-SynGAP (D20C7) and α1-specific antibody; n = 4; parent: est. 1.0; read off a plot.

As for “EGFP-SynGAPα1 T/I; V/E (C-terminal PDZ-binding motif QTRV changed to QIRE)”, the ratio to parent was determined as 0.45.
